# B1: ovalbumin (protein, UniProt P01012 2-386, looked up)
# Ovalbumin: GSIGAASMEFCFDVFKELKVHHANENIFYCPIAIMSALAMVYLGAKDSTRTQINKVVRFDKLPGFGDSIEAQCGTSVNVHSSLRDILNQITKPNDVYSFSLASRLYAEERYPILPEYLQCVKELYRGGLEPINFQTAADQARELINSWVESQTNGIIRNVLQPSSVDSQTAMVLVNAIVFKGLWEKAFKDEDTQAMPFRVTEQESKPVQMMYQIGLFRVASMASEKMKILELPFASGTMSMLVLLPDEVSGLEQLESIINFEKLTEWTSSNVMEERKIKVYLPRMKMEEKYNLTSVLMAMGITDVFSSSANLSGISSAESLKISQAVHAAHAEINEAGREVVGSAEAGVDAASVSEEFRADHPFLFCIKHIATNAVLFFGRCVSP
# notes: model protein antigen (Sigma Aldrich)
# Experiment: Overall electrostatic charge of lipopeptide or protein antigen
# Format: physicochemical
Molecule,overall charge,overall negative charge
hen egg lysozyme [HEL],+8,
B1,,11

# From patent US9889195B2, “Immunogenic composition and uses thereof” (THE UNIVERSITY OF MELBOURNE, priority 2009, dated 2018)
